No end group written: not given here.
Target: T1, cytosolic domain of yeast Tom70 (His-Tom70_(38–617)) (yeast (Saccharomyces cerevisiae), UniProt P07213 38-617)
T1 construct: Tom70, yeast, cytosolic domain, residues 38-617 of the protein of 617 amino acids; plasmid pET10N-Tom70(38–617); also called Tom70cd; isolated Tom70; source: E. coli BL21(DE3), purified (HisTrap, size exclusion; or Ni-NTA beads, batch method); not shown: His tag, N-terminal, kept
T1 sequence (looked up): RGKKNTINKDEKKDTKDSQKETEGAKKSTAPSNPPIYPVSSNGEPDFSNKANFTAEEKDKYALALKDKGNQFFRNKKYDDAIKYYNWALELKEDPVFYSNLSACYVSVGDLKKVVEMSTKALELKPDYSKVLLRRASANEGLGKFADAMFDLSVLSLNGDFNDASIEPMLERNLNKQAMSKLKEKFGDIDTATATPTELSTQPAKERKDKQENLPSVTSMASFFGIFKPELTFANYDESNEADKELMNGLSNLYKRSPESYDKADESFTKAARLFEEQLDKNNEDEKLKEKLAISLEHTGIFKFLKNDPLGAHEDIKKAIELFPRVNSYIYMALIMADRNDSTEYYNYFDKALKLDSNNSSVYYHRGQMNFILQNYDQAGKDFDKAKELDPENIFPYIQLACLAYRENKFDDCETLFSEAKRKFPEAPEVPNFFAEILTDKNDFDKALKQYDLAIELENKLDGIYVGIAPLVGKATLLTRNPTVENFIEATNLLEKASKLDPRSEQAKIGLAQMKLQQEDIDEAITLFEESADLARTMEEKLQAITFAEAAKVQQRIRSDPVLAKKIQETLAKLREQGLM
Assay: pull-down; purified His-Tom70cd (50 pmol per 100 μl) pre-bound to Ni-NTA beads, incubated 40 min at 30 °C with typically 7% (v/v) reticulocyte lysate containing the [35S]-labelled protein; 10 mM MOPS/KOH, 20 mM imidazole, 150 mM KCl, 1% BSA, pH 7.2; eluted with 1 M imidazole, SDS-PAGE, phosphorimager; in some samples the bead-bound Tom70cd was pretreated with NEM and washed before the lysate was added
Conditions: one partner purified

B1: ML3-DHFR (matrix loop of AAC module III, residues 238–277, fused to DHFR) (domain or fragment, Neurospora crassa, UniProt P02723 238-277, looked up)
chain: PLDTIRRRMMMTSGEAVKYKSSFDAASQIVAKEGVKSLFK
modifications: also: fused to DHFR, [35S]-methionine label
notes: ADP/ATP carrier (AAC), Neurospora crassa, residues 238-277; plasmid pYES2-AAC(238–277)-DHFR; also called the construct containing only the matrix loop; AAC(238–277)-DHFR; source: in vitro translated (TNT coupled reticulocyte lysate, with [35S]-methionine), in lysate
- percent of the total radiolabelled protein bound: < 1%

— PMC7596997, “The selectivity filter of the mitochondrial protein import machinery” (BMC Biology, 2020)
